Kd data for one molecule are collected here from publication PMC3501490 (2012).

The assay concerns the target T1, G6B-b dual phosphopeptide pY211/pY237 (Homo sapiens, UniProt O95866, pY211+pY237).
T1 chain: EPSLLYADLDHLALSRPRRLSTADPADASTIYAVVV
As to the kind of experiment: SPR. (In general: Surface plasmon resonance follows binding to a sensor surface in real time, without labels.)

B1: SHP-1 tandem SH2 (protein)
chain: WFHRDLSGLDAETLLKGRGVHGSFLARPSRKNQGDFSLSVRVGDQVTHIRIQNSGDFYDLYGGEKFATLTELVEYYTQQQGVLQDRDGTIIHLKYPLNCSDPTSERWYHGHMSGGQAETLLQAKGEPWTFLVRESLSQPGDFVLSVLSDQPKAGPGSPLRVTHIKVMCEGGRYTVGGLETFDSLTDLVEHFKKTGIEEASGAFVYLRQPY
In general, Kd refers to the equilibrium constant for the complex coming apart. For B1, the Kd amounted to 35.3 nM.
